Source: patent US11390894B2, “Biological processes for the production of aryl sulfates” (CysBio ApS, priority 2014, dated 2022)

B1: SULT1A1 Rattus norvegicus: aryl sulfotransferase SULT1A1 from Rattus norvegicus (SEQ ID NO: 1), expressed in host cells (protein, listed as Rattus norvegicus)
chain: MEFSRPPLVHVKGIPLIKYFAETIGPLQNFTAWPDDLLISTYPKSGTTWMSEILDMIYQGGKLEKCGRAPIYARVPFLEFKCPGVPSGLETLEETPAPRLLKTHLPLSLLPQSLLDQKVKVIYIARNAKDVVVSYYNFYNMAKLHPDPGTWDSFLENFMDGEVSYGSWYQHVKEWWELRHTHPVLYLFYEDIKENPKREIKKILEFLGRSLPEETVDSIVHHTSFKKMKENCMTNYTTIPTEIMDHNVSPFMRKGTTGDWKNTFTVAQNERFDAHYAKTMTDCDFKFRCEL
B2: SULT1A1 Rattus norvegicus (Codon-optimized for E. coli): SULT1A1 from rat expressed from a gene codon-optimized for E. coli (protein, UniProt P17988 1-291, looked up)
Sulfotransferase 1A1: B1 chain

What was measured:
pHCA [1] = test: Percent conversion of substrate by E. coli cells expressing sulfotransferases; assay type: cell-based, Escherichia coli; settings: 100 μM pHCA, M9 medium, overnight 37° C.
Description: (§1) The concentration of p-courmaric acid (pHCA) and zosteric acid in the supernatant was quantified by high performance (HPLC) and compared to chemical standards. HPLC was done on a Thermo setup using a HS-F5 column and mobile phases: 5 mM ammonium formate pH 4.0 (A) and acetonitrile (B) at 1.5 mL min-1, using a gradient elution starting at 5% B. From 0.5 min after injection to 7 min, the fraction of B increased linearly from 5% to 60%, and between 9.5 min and 9.6 the fraction of B decreased back to 5%, and remaining there until 12 min. pHCA and zosteric acid were quantified by measuring absorbance at 277 nm.
(§2) Different sulfotransferases were examined for their substrate specificities against three substrates. We tested the sulfotransferases mentioned in example 1, as well as additional ones. The genes encoding these were cloned as described in example 1 using the primers shown in the table below from cDNA libraries of the respective organisms, except for the SULT1A1 from rat (Rattus norvegicus) codon-optimized for E. coli (described above). The resulting vectors were transformed into BL21(DE3)pLysS.
(§3) The resulting strains were grown in M9 medium containing either 100 μM pHCA, 95 μM resveratrol or 87 M kaempferol. The cultures were grown overnight at 37° C., 300 rpm. The following day the supernatants were isolated and examined by HPLC as described in example 1.

resveratrol = test: as above; assay type: cell-based, Escherichia coli; settings: 95 μM resveratrol, M9 medium, overnight 37° C.
Description: as §1, §2, §3

kaempferol = test: as above; assay type: cell-based, Escherichia coli; settings: 87 μM kaempferol, M9 medium, overnight 37° C.
Description: as §1, §2, §3

pHCA [2] = test: Production of zosteric acid in E. coli from pHCA through heterologous expression of sulfotransferases; assay type: cell-based, Escherichia coli; settings: culture media; M9 glucose, 0.1 mM IPTG, 0.1 mM pHCA, four days of growth
Description: A range of aryl sulfotransferases including SULT1A1 Rattus norvegicus (SEQ ID NO: 1), SULT1A1 Homo sapiens (SEQ ID NO: 2), SULT1A1 Equus caballus (SEQ ID NO: 3), SULT1A1 Sus scrofa domesticus (SEQ ID NO: 4), SULT1A1 Canis lupus familiaris (SEQ ID NO: 5) and SULT1E1 Gallus gallus domesticus (SEQ ID NO: 6) were expressed in Escherichia coli. […]. The nucleotide sequence of the gene encoding SEQ ID NO: 2 was codon optimized for expression in Escherichia coli (GeneArt, Life Technologies) and amplified by PCR using the primers in Table 1. The pETDuet-1 plasmid was digested with restriction endonucleases Ncol and Sal. The PCR products were then individually cloned into the plasmid pETDuet-1 using the Gibson reaction (New England Biolabs). The resulting plasmids were transformed into BL21(DE3)pLysS (Life Technologies).
The strains were grown in M9 minimal media containing glucose as a carbon source, and 0.1 mM IPTG for induction of gene expression as well as 0.1 mM p-coumaric acid (pHCA). After four days of growth, samples were withdrawn by filtration and analyzed by HPLC.
as §1
Zosteric acid was formed with an aryl sulfotransferase heterologously expressed in a microorganism exemplified by E. coli supplied with the substrate.

p-coumaric acid = test: Production of zosteric acid in Saccharomyces cerevisiae expressing SULT1A1; assay type: cell-based; settings: strain CEN.PK102-5B, modified Delft medium, 10 mM p-coumaric acid, overnight 30° C., supernatant
Description: as §1
The gene encoding aryl sulfotransferase SULT1A (Example 1) was cloned after a TEF1 promoter into an episomal plasmid with a 2-micron origin of replication as follows. The gene was amplified by PCR using primers CBJP633 and CBJP634. Alternatively, the gene was codon-optimized for E. coli and synthesized by GeneArt and amplified by primers CBJP635 and CBJP636. The TEF1 promoter (Jensen et al., 2014, FEMS Yeast Res 14: 238-248) was amplified by PCR using the primers PTEF1_fw and PTEF1_rv. Plasmid pCfB132 (Jensen et al., supra) was digested by restriction enzymes AsiSI and Nt.Bsml. […]

Molecule	percent conversion of pHCA (pHCA [1]) [%]	percent conversion of resveratrol (resveratrol) [%]	percent conversion of kaempferol (kaempferol) [%]	Zosteric acid formed (pHCA [2]) [mM]	pHCA remaining (pHCA [2]) [mM]	μM ZA (averages and standard deviations of replicate experiments) (p-coumaric acid) [µM]
B1	93	93	95	0.10	0.02	37.8 ± 5.7
B2	73	58	38	–	–	46.2 ± 3.5
